Results published in the supplement of paper PMC11316812.
± gives the standard deviation of the averaged measurements.

How the values were obtained:
MCF7 = assay: percentage of EdU-negative (G0-arrested) nuclei per well, 72 h; higher = more G0 arrest; conditions: reference: sequence is the full UniProt precursor, the tested protein was the secreted form or ectodomain
hTERT-HMEC = assay: as above; conditions: reference: sequence is the full UniProt precursor, the tested protein was the secreted form or ectodomain
[1] = protein concentration 0.01422 µM
[2] = protein concentration 0.1422 µM
[3] = protein concentration 0.0225 µM
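Also: secreted proteins added to cultured cells, EdU pulse at the end, nuclei found by Hoechst imaging, EdU status from nuclear versus surrounding ring intensity ratio, PBS as neutral control.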

Row | Sequence | percentage of EdU-negative (MCF7; [1]) | percentage of EdU-negative (MCF7; [2]) | percentage of EdU-negative (hTERT-HMEC; [1]) | percentage of EdU-negative (hTERT-HMEC; [2]) | percentage of EdU-negative (MCF7; [3]) | percentage of EdU-negative (MCF7; protein concentration 0.225 µM) | percentage of EdU-negative (hTERT-HMEC; [3]) | percentage of EdU-negative (hTERT-HMEC; protein concentration 0.225 µM)
1 | MGAPACALALCVAVAIVAGASSESLGTEQRVVGRAAEVPGPEPGQQEQLVFGSGDAVELSCPPPGGGPMGPTVWVKDGTGLVPSERVLVGPQRLQVLNASHEDSGAYSCRQRLTQRVLCHFSVRVTDAPSSGDDEDGEDEAEDTGVDTGAPYWTRPERMDKKLLAVPAANTVRFRCPAAGNPTPSISWLKNGREFRGEHRIGGIKLRHQQWSLVMESVVPSDRGNYTCVVENKFGSIRQTYTLDVLERSPHRPILQAGLPANQTAVLGSDVEFHCKVYSDAQPHIQWLKHVEVNGSKVGPDGTPYVTVLKTAGANTTDKELEVLSLHNVTFEDAGEYTCLAGNSIGFSHHSAWLVVLPAEEELVEADEAGSVYAGILSYGVGFFLFILVVAAVTLCRLRSPPKKGLGSPTVHKISRFPLKRQVSLESNASMSSNTPLVRIARLSSGEGPTLANVSELELPADPKWELSRARLTLGKPLGEGCFGQVVMAEAIGIDKDRAAKPVTVAVKMLKDDATDKDLSDLVSEMEMMKMIGKHKNIINLLGACTQGGPLYVLVEYAAKGNLREFLRARRPPGLDYSFDTCKPPEEQLTFKDLVSCAYQVARGMEYLASQKCIHRDLAARNVLVTEDNVMKIADFGLARDVHNLDYYKKTTNGRLPVKWMAPEALFDRVYTHQSDVWSFGVLLWEIFTLGGSPYPGIPVEELFKLLKEGHRMDKPANCTHDLYMIMRECWHAAPSQRPTFKQLVEDLDRVLTVTSTDEYLDLSAPFEQYSPGGQDTPSSSSSGDDSVFAHDLLPPAPPSSGGSRT | 27.1 ± 3.1% | 25.5 ± 3.1% | 5.58 ± 0.063% | 5.64 ± 0.3% |  |  |  | 
2 | MGAYARASGVCARGCLDSAGPWTMSRALRPPLPPLCFFLLLLAAAGARAGGYETCPTVQPNMLNVHLLPHTHDDVGWLKTVDQYFYGIKNDIQHAGVQYILDSVISALLADPTRRFIYVEIAFFSRWWHQQTNATQEVVRDLVRQGRLEFANGGWVMNDEAATHYGAIVDQMTLGLRFLEDTFGNDGRPRVAWHIDPFGHSREQASLFAQMGFDGFFFGRLDYQDKWVRMQKLEMEQVWRASTSLKPPTADLFTGVLPNGYNPPRNLCWDVLCVDQPLVEDPRSPEYNAKELVDYFLNVATAQGRYYRTNHTVMTMGSDFQYENANMWFKNLDKLIRLVNAQQAKGSSVHVLYSTPACYLWELNKANLTWSVKHDDFFPYADGPHQFWTGYFSSRPALKRYERLSYNFLQVCNQLEALVGLAANVGPYGSGDSAPLNEAMAVLQHHDAVSGTSRQHVANDYARQLAAGWGPCEVLLSNALARLRGFKDHFTFCQQLNISICPLSQTAARFQVIVYNPLGRKVNWMVRLPVSEGVFVVKDPNGRTVPSDVVIFPSSDSQAHPPELLFSASLPALGFSTYSVAQVPRWKPQARAPQPIPRRSWSPALTIENEHIRATFDPDTGLLMEIMNMNQQLLLPVRQTFFWYNASIGDNESDQASGAYIFRPNQQKPLPVSRWAQIHLVKTPLVQEVHQNFSAWCSQVVRLYPGQRHLELEWSVGPIPVGDTWGKEVISRFDTPLETKGRFYTDSNGREILERRRDYRPTWKLNQTEPVAGNYYPVNTRIYITDGNMQLTVLTDRSQGGSSLRDGSLELMVHRRLLKDDGRGVSEPLMENGSGAWVRGRHLVLLDTAQAAAAGHRLLAEQEVLAPQVVLAPGGGAAYNLGAPPRTQFSGLRRDLPPSVHLLTLASWGPEMVLLRLEHQFAVGEDSGRNLSAPVTLNLRDLFSTFTITRLQETTLVANQLREAASRLKWTTNTGPTPHQTPYQLDPANITLEPMEIRTFLASVQWKEVDG |  |  |  |  | 24.7 ± 1.5% | 24.7 ± 1.2% | 4.43 ± 0.26% | 5.51 ± 0.44%
3 | MGCLLFLLLWALLQAWGSAEVPQRLFPLRCLQISSFANSSWTRTDGLAWLGELQTHSWSNDSDTVRSLKPWSQGTFSDQQWETLQHIFRVYRSSFTRDVKEFAKMLRLSYPLELQVSAGCEVHPGNASNNFFHVAFQGKDILSFQGTSWEPTQEAPLWVNLAIQVLNQDKWTRETVQWLLNGTCPQFVSGLLESGKSELKKQVKPKAWLSRGPSPGPGRLLLVCHVSGFYPKPVWVKWMRGEQEQQGTQPGDILPNADETWYLRATLDVVAGEAAGLSCRVKHSSLEGQDIVLYWGGSYTSMGLIALAVLACLLFLLIVGFTSRFKRQTSYQGVL |  |  |  |  | 23.9 ± 2.6% | 27.61 ± 0.11% | 4.97 ± 0.24% | 5.04 ± 0.17%
4 | MGCRAASGLLPGVAVVLLLLLQSTQSVYIQYQGFRVQLESMKKLSDLEAQWAPSPRLQAQSLLPAVCHHPALPQDLQPVCASQEASSIFKTLRTIANDDCELCVNVACTGCL |  |  |  |  | 27.3 ± 2.2% | 27.8 ± 1.8% | 4.91 ± 1.5% | 9.77 ± 1.3%
5 | MGCWGQLLVWFGAAGAILCSSPGSQETFLRSSPLPLASPSPRDPKVSAPPSILEPASPLNSPGTEGSWLFSTCGASGRHGPTQTQCDGAYAGTSVVVTVGAAGQLRGVQLWRVPGPGQYLISAYGAAGGKGAKNHLSRAHGVFVSAIFSLGLGESLYILVGQQGEDACPGGSPESQLVCLGESRAVEEHAAMDGSEGVPGSRRWAGGGGGGGGATYVFRVRAGELEPLLVAAGGGGRAYLRPRDRGRTQASPEKLENRSEAPGSGGRGGAAGGGGGWTSRAPSPQAGRSLQEGAEGGQGCSEAWATLGWAAAGGFGGGGGACTAGGGGGGYRGGDASETDNLWADGEDGVSFIHPSSELFLQPLAVTENHGEVEIRRHLNCSHCPLRDCQWQAELQLAECLCPEGMELAVDNVTCMDLHKPPGPLVLMVAVVATSTLSLLMVCGVLILVKQKKWQGLQEMRLPSPELELSKLRTSAIRTAPNPYYCQVGLGPAQSWPLPPGVTEVSPANVTLLRALGHGAFGEVYEGLVIGLPGDSSPLQVAIKTLPELCSPQDELDFLMEALIISKFRHQNIVRCVGLSLRATPRLILLELMSGGDMKSFLRHSRPHLGQPSPLVMRDLLQLAQDIAQGCHYLEENHFIHRDIAARNCLLSCAGPSRVAKIGDFGMARDIYRASYYRRGDRALLPVKWMPPEAFLEGIFTSKTDSWSFGVLLWEIFSLGYMPYPGRTNQEVLDFVVGGGRMDPPRGCPGPVYRIMTQCWQHEPELRPSFASILERLQYCTQDPDVLNSLLPMELGPTPEEEGTSGLGNRSLECLRPPQPQELSPEKLKSWGGSPLGPWLSSGLKPLKSRGLQPQNLWNPTYRS |  |  |  |  | 26.78 ± 0.18% | 28.3 ± 2.3% | 5.75 ± 1.3% | 10.5 ± 0.56%
